Like-named read-outs stand apart in the source and are kept apart here. Square brackets hold non-standard residues; d marks the D form. Ends that are not written are not given here. Nle = CCCC[C@H](N)C(=O)O; Aib = CC(C)(N)C(=O)O
T1: human GIP receptor (human, UniProt P48546 22-466)
T1 sequence (looked up): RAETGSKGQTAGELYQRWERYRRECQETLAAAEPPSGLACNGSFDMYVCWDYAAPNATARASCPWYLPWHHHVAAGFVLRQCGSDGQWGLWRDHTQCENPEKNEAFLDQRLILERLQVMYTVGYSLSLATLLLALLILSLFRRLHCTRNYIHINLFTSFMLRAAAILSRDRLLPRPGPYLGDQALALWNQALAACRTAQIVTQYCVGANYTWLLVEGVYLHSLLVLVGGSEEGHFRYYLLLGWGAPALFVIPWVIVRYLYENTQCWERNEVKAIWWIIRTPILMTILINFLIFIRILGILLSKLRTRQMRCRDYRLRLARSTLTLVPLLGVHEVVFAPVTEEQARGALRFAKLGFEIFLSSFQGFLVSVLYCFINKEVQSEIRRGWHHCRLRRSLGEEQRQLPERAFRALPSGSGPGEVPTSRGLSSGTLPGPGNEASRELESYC

B1: SEQ ID NO: 9 (peptide)
peptide: Y[Aib]EGTFTSDLSIQLEKRAA[Aib]EFIEWLKAGGPSSGAPPPS-NH2
modifications: N-terminus assumed
SMILES: CC[C@H](C)[C@H](NC(=O)[C@H](CO)NC(=O)[C@H](CC(C)C)NC(=O)[C@H](CC(=O)O)NC(=O)[C@H](CO)NC(=O)[C@@H](NC(=O)[C@H](Cc1ccccc1)NC(=O)[C@@H](NC(=O)CNC(=O)[C@H](CCC(=O)O)NC(=O)C(C)(C)NC(=O)[C@@H](N)Cc1ccc(O)cc1)[C@@H](C)O)[C@@H](C)O)C(=O)N[C@@H](CCC(N)=O)C(=O)N[C@@H](CC(C)C)C(=O)N[C@@H](CCC(=O)O)C(=O)N[C@@H](CCCCN)C(=O)N[C@@H](CCCNC(=N)N)C(=O)N[C@@H](C)C(=O)N[C@@H](C)C(=O)NC(C)(C)C(=O)N[C@@H](CCC(=O)O)C(=O)N[C@@H](Cc1ccccc1)C(=O)N[C@H](C(=O)N[C@@H](CCC(=O)O)C(=O)N[C@@H](Cc1c[nH]c2ccccc12)C(=O)N[C@@H](CC(C)C)C(=O)N[C@@H](CCCCN)C(=O)N[C@@H](C)C(=O)NCC(=O)NCC(=O)N1CCC[C@H]1C(=O)N[C@@H](CO)C(=O)N[C@@H](CO)C(=O)NCC(=O)N[C@@H](C)C(=O)N1CCC[C@H]1C(=O)N1CCC[C@H]1C(=O)N1CCC[C@H]1C(=O)N[C@@H](CO)C(N)=O)[C@@H](C)CC
B2: SEQ ID NO: 10 (peptide)
peptide: Y[Aib]EGTFTSDLSIQ[Nle]EKRAA[Aib]EFIEWLKAGGPSSGAPPPS-NH2
modifications: N-terminus assumed
SMILES: CCCC[C@H](NC(=O)[C@H](CCC(N)=O)NC(=O)[C@@H](NC(=O)[C@H](CO)NC(=O)[C@H](CC(C)C)NC(=O)[C@H](CC(=O)O)NC(=O)[C@H](CO)NC(=O)[C@@H](NC(=O)[C@H](Cc1ccccc1)NC(=O)[C@@H](NC(=O)CNC(=O)[C@H](CCC(=O)O)NC(=O)C(C)(C)NC(=O)[C@@H](N)Cc1ccc(O)cc1)[C@@H](C)O)[C@@H](C)O)[C@@H](C)CC)C(=O)N[C@@H](CCC(=O)O)C(=O)N[C@@H](CCCCN)C(=O)N[C@@H](CCCNC(=N)N)C(=O)N[C@@H](C)C(=O)N[C@@H](C)C(=O)NC(C)(C)C(=O)N[C@@H](CCC(=O)O)C(=O)N[C@@H](Cc1ccccc1)C(=O)N[C@H](C(=O)N[C@@H](CCC(=O)O)C(=O)N[C@@H](Cc1c[nH]c2ccccc12)C(=O)N[C@@H](CC(C)C)C(=O)N[C@@H](CCCCN)C(=O)N[C@@H](C)C(=O)NCC(=O)NCC(=O)N1CCC[C@H]1C(=O)N[C@@H](CO)C(=O)N[C@@H](CO)C(=O)NCC(=O)N[C@@H](C)C(=O)N1CCC[C@H]1C(=O)N1CCC[C@H]1C(=O)N1CCC[C@H]1C(=O)N[C@@H](CO)C(N)=O)[C@@H](C)CC
B3: SEQ ID NO: 11 (peptide)
peptide: Y[Aib]EGTFTSDLSIQLEKRAA[Aib]EFIEWLKAGGPSSGAPPPSK-NH2
modifications: N-terminus assumed
SMILES: CC[C@H](C)[C@H](NC(=O)[C@H](CO)NC(=O)[C@H](CC(C)C)NC(=O)[C@H](CC(=O)O)NC(=O)[C@H](CO)NC(=O)[C@@H](NC(=O)[C@H](Cc1ccccc1)NC(=O)[C@@H](NC(=O)CNC(=O)[C@H](CCC(=O)O)NC(=O)C(C)(C)NC(=O)[C@@H](N)Cc1ccc(O)cc1)[C@@H](C)O)[C@@H](C)O)C(=O)N[C@@H](CCC(N)=O)C(=O)N[C@@H](CC(C)C)C(=O)N[C@@H](CCC(=O)O)C(=O)N[C@@H](CCCCN)C(=O)N[C@@H](CCCNC(=N)N)C(=O)N[C@@H](C)C(=O)N[C@@H](C)C(=O)NC(C)(C)C(=O)N[C@@H](CCC(=O)O)C(=O)N[C@@H](Cc1ccccc1)C(=O)N[C@H](C(=O)N[C@@H](CCC(=O)O)C(=O)N[C@@H](Cc1c[nH]c2ccccc12)C(=O)N[C@@H](CC(C)C)C(=O)N[C@@H](CCCCN)C(=O)N[C@@H](C)C(=O)NCC(=O)NCC(=O)N1CCC[C@H]1C(=O)N[C@@H](CO)C(=O)N[C@@H](CO)C(=O)NCC(=O)N[C@@H](C)C(=O)N1CCC[C@H]1C(=O)N1CCC[C@H]1C(=O)N1CCC[C@H]1C(=O)N[C@@H](CO)C(=O)N[C@@H](CCCCN)C(N)=O)[C@@H](C)CC
B4: SEQ ID NO: 12 (peptide)
peptide: Y[Aib]EGTFTSDLSIQLDKRAA[Aib]EFIEWLKAGGPSSGAPPPS-NH2
modifications: N-terminus assumed
SMILES: CC[C@H](C)[C@H](NC(=O)[C@H](CO)NC(=O)[C@H](CC(C)C)NC(=O)[C@H](CC(=O)O)NC(=O)[C@H](CO)NC(=O)[C@@H](NC(=O)[C@H](Cc1ccccc1)NC(=O)[C@@H](NC(=O)CNC(=O)[C@H](CCC(=O)O)NC(=O)C(C)(C)NC(=O)[C@@H](N)Cc1ccc(O)cc1)[C@@H](C)O)[C@@H](C)O)C(=O)N[C@@H](CCC(N)=O)C(=O)N[C@@H](CC(C)C)C(=O)N[C@@H](CC(=O)O)C(=O)N[C@@H](CCCCN)C(=O)N[C@@H](CCCNC(=N)N)C(=O)N[C@@H](C)C(=O)N[C@@H](C)C(=O)NC(C)(C)C(=O)N[C@@H](CCC(=O)O)C(=O)N[C@@H](Cc1ccccc1)C(=O)N[C@H](C(=O)N[C@@H](CCC(=O)O)C(=O)N[C@@H](Cc1c[nH]c2ccccc12)C(=O)N[C@@H](CC(C)C)C(=O)N[C@@H](CCCCN)C(=O)N[C@@H](C)C(=O)NCC(=O)NCC(=O)N1CCC[C@H]1C(=O)N[C@@H](CO)C(=O)N[C@@H](CO)C(=O)NCC(=O)N[C@@H](C)C(=O)N1CCC[C@H]1C(=O)N1CCC[C@H]1C(=O)N1CCC[C@H]1C(=O)N[C@@H](CO)C(N)=O)[C@@H](C)CC

Tests used:
Experiment in all cases: cell-based or functional assay
[1] = biological target: human GLP-1 receptor (human) (UniProt P43220)
human GLP-1 receptor (human), sequence (P43220 24-463): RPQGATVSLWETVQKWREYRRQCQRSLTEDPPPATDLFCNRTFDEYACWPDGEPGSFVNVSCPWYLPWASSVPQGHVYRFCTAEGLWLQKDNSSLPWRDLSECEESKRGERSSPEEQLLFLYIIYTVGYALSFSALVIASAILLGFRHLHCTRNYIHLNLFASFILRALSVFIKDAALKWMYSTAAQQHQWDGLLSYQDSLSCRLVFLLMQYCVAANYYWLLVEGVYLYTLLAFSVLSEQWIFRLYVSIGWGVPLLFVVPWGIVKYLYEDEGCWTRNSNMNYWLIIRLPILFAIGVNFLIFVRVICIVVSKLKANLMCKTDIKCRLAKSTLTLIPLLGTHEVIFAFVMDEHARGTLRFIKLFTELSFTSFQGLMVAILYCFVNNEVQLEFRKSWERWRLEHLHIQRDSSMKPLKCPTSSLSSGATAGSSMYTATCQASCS

[2] = biological target: human glucagon receptor (human) (UniProt P47871)
human glucagon receptor (human), sequence (P47871 26-477): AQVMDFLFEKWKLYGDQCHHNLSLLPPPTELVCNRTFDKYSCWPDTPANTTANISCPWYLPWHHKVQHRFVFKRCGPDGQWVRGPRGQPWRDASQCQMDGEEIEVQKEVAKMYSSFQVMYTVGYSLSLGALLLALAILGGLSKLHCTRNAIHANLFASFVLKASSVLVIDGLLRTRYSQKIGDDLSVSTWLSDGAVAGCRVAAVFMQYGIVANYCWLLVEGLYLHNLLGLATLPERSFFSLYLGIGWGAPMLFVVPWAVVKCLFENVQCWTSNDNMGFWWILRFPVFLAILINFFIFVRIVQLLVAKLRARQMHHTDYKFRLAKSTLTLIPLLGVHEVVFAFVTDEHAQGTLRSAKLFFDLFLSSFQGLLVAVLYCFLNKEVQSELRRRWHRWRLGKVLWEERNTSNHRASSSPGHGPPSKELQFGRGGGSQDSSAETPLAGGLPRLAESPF

human glucagon receptor = human glucagon receptor (human, UniProt P47871 26-477)
human glucagon receptor, sequence (P47871 26-477): as above

human GLP-1 receptor [3] = biological target: T2, human GLP-1 receptor (human, UniProt P43220 24-463)
human GIP receptor [4] = biological target: T1, human GIP receptor
human GLP-1 receptor [5] = biological target: T2, human GLP-1 receptor; remark: listed apart in the source
Target sequence in this assay (P43220 24-463): as the sequence (P43220 24-463) above

human GIP receptor [6] = biological target: T1, human GIP receptor; remark: listed apart in the source

Row | Molecule | EC50 hGLP-1 R [pM] (cAMP formation, HTRF, HEK-293 cells) [1] | EC50 hGlucagon R [pM] (cAMP formation, HTRF, HEK-293 cells) [2] | EC50 hGLUC R [pM] (cAMP formation, HTRF, HEK-293 cells) (human glucagon receptor) | EC50 hGLP-1 R [pM] (cAMP formation, HTRF, HEK-293 cells) (human GLP-1 receptor [3]) | EC50 hGlP R [pM] (cAMP formation, HTRF, HEK-293 cells) (human GIP receptor [4]) | EC50 hGLP-1 R [pM] (cAMP formation, HTRF, HEK-293 cells) (human GLP-1 receptor [5]) | EC50 hGlP R [pM] (cAMP formation, HTRF, HEK-293 cells) (human GIP receptor [6])
1 | exendin-4 (peptide) | 0.4 | > 1e+07 | – | – | – | – | –
2 | B1 | – | – | 155000 | 1.2 | 7.9 | – | –
3 | B2 | – | – | 193000 | 1.4 | 12.4 | – | –
4 | Y[Aib]EGTFTSDLSIQMEKRAA[Aib]EFIEWLKAGGPSSGAPPPS-NH2 [SEQ ID NO: 8] | – | – | > 1e+06 | 1.5 | 14.4 | – | –
5 | B3 | – | – | 129000 | 1.6 | 14.1 | – | –
6 | YAEGTFTSDVSIYLEGQAAKEFIAWLVKGR (ends and bridges not checked) [Tyr(1)Ile(12)-GLP1] | – | – | – | – | – | 5 | 3660
7 | B4 | – | – | 17900 | 2.6 | 17.9 | – | –

Source: US20150164995A1 (Sanofi, published 2015)
